# Measurements from publication PMC13061415 (2026).
# B1: muskelin CTLH-CRA domain (205–735 Δ248–625) [rat] / Twa1 CTLH-CRA domain (58-190), wild type [mouse] (parent complex)
# chain 1: EHPMLTDMHDKLVLKGDFDACEELIEKAVNDGLFNQYISQQEYPSKDYLLRHCKYLIRKHRFEEKAQMDPLSALKYLQNDLYITVDHSDPEETKEFQLLASALFKSGSDFTALGFSDVDHTYAQRTQLFDTLVNFFPDSMTPPKGNLVDLITL
# chain 2: SVDLETLDERIKIREMILKGQIQEAIALINSLHPELLDTNRYLYFHLQQQHLIELIRQRETEAALEFAQTQLAEQGEESRECLTEMERTLALLAFDSPEESPFGDLLHMMQRQKVWSEVNQAVLDYENRESTP
# Variants of: B1
# Experiment: ITC; 160 µM muskelin + 16 µM Twa1 mutants; read off a plot
row,dG [kcal/mol],Variant
1,~-8.8,"chain 2 A68G, chain 2 Q69R, chain 2 A73Q, chain 2 L83K, chain 2 E87K, chain 2 L90F, chain 2 F95Y, chain 2 F103V"
